The data set addresses Cys101 (UniProt position 101, YVTSVCTGSLV). Description: crystallography. As to conditions: data collected at 100 K; crystals grown at 20°C; 200 mM MgCl2 in reservoir; 100 mM tris-HCl (pH 8.3), sodium citrate (pH 6.0), or sodium acetate (pH 4.2, 5.0, 5.4); 23% PEG 3350, 2 mM DTT; substrate-free wild-type enzyme in crystals, reduced Cys101 (DTT present).

Values joined by “and” are separate entries in the source; they are usually repeats but may differ in a detail not shown here. Equal values may be shown once.

Regarding “Isocyanide hydratase (ICH, PfICH) (Pseudomonas fluorescens)”, the pKa (in general, the negative logarithm of the acid dissociation constant) was 5.7 and 5 to 6.

(Values after PMC10971408.)
